Reference: US20250215071A1, “Novel Mcl-1 inhibitor and combination of Mcl-1 and a BH3 mimetic, such as a Bcl-2 inhibitor” (NETRIS PHARMA, priority 2022, published 2025)

What was measured:
[1] = tested on: Mcl-1; assay: Mcl-1 immunohistochemistry on paired biopsies of phase I trial patients (NCT02977195); type: in vivo, human
Protocol: (§1) FIG. 7. Netrin-1 interference triggers Mcl-1 degradation in vitro and in vivo. (A,B): Netrin-1 silencing triggers Mcl-1 degradation. Breast cancer MCF7 cells were transfected with scramble (siCTRL) or netrin-1 (siNet) targeting siRNAs. 48 hours after transfection, cells were lysed by scraping and sonication in SDS-containing buffer. Protein levels of Mcl-1, netrin-1, and UNC5B, as well as B-actin and Ku80, used as housekeeping genes, were evaluated by western blot (A). Relative Mcl-1 protein levels, normalized to β-actin or Ku80, are shown in (B) (n=2, *** p<0.001, **** p<0.0001, ordinary two-way ANOVA with Sidak's multiple comparisons test). Activation of endogenous UNC5B upon netrin-1 silencing decreased Mcl-1 protein levels. Values are given as means±SEM. (C,D): Netrin-1 interference degrades Mcl-1 in a syngeneic breast cancer model. Stable EMT6 cells, constitutively over-expressing human Mcl-1, were engrafted in BALB/c mice. Once tumors reached a volume of 100 mm^3, mice were treated with Iso-mAb or NP137 antibodies and sacrificed 8 hours after treatment. Protein levels of Mcl-1 were then evaluated by western blot (C). […] Mcl-1 protein was quantified in paraffin-embedded slices on paired C1D1 and C3D1 biopsies and compared with clinical benefit (stable disease, SD, or progression disease, PD, at 6 weeks). Mcl-1 intensity was assessed in all, PD or SD biopsies (E) (n=6, Wilcoxon test). […]
The NP137 antibody is currently being assessed in several phase I and II clinical trials, in patients with advanced solid tumours. […] Mcl-1 presence was thus analysed by immunohistochemistry.
For histological examination of tumours engrafted in nude mice, ex vivo breast cancer slices, and from human clinical trial, tumours were fixed in 10% buffered formalin and embedded in paraffin. […] Quantification of caspase-3- and Mcl-1-positive cells was performed with HALO software and adapted algorithms cytonuclear v2.0.8 6 (Indica Labs, Albuquerque, NM, USA). MCL1 intensity, has been calculated in percentage over the surface of tumour cells. […]

[2] = tested on: human Mcl-1; assay: In vivo Mcl-1 degradation in EMT6 syngeneic breast cancer model (western blot); conditions: EMT6 cells over-expressing human Mcl-1 in BALB/c mice; 20 mg/Kg i.v.; 8 hours after treatment; vs control mice (Iso-mAb)
Protocol: as §1, with “Activation of endogenous UNC5B upon netrin-1 silencing decreased Mcl-1 protein levels. Values are given as means±SEM. (C,D): Netrin-1 interference degrades Mcl-1 in a syngeneic breast cancer model. Stable EMT6 cells, constitutively over-expressing human Mcl-1, were engrafted in BALB/c mice. Once tumors reached a volume of 100 mm^3, mice were treated with Iso-mAb or NP137 antibodies and sacrificed 8 hours after treatment.” left out
For immunoblotting analysis, cells were lysed by sonication in SDS buffer (10 mM Tris-HCl pH 7.4, 10% glycerol, 5% SDS, 1% TX-100, 100 mM DTT) in the presence of protease inhibitor cocktail (Roche Applied Science). […] Protein band quantification was performed with Image Lab 6.1 software (Bio-rad), considering the adjusted volume intensity normalized with housekeeping genes. […]

B1: NP137: humanized anti-netrin-1 monoclonal antibody, VH SEQ ID NO: 22, VL SEQ ID NO: 16, human IgG1 (antibody, V domains shown)
VH: QVQLQQSGPGLVKPSQTLSLTCAISGYTFTSYNMHWVRQATGQGLEWMGAIYPGNGDTSYNQKFKGRLTISKDTSKNQVVLTMTNMDPVDTATYYCARGGTGFAYWGQG
VL: DIQMTQSPSSLSASVGDRVTITCKASQSVSNDVAWYQQKPGQAPRLLIYYASNRYTGIPPRFSGSGYGTDFTLTINNIESEDAAYYFCQQDYSSPWTFGQG
modifications: human IgG1 constant region; humanized variant; MISC_FEATURE - CDR according to IGMT
[1]; all twelve patients, 14 mg/kg once every two weeks, C3D1 vs C1D1 biopsies
  patient tumours with reduced Mcl-1 levels: nine out of the twelve
[1]; six patients with progression disease (PD) at 6 weeks
  patients with Mcl-1 decrease: three of the six
[1]; six patients with stable disease (SD) at 6 weeks
  patients with Mcl-1 decrease: six patients with SD showed Mcl-1 decrease
[2]
  Mcl-1 protein levels in tumors: significantly reduced Mcl-1 protein levels
